Test results published in IntAct's records for PubMed 12193598.

B1: Palmitoyltransferase ERF2 (Saccharomyces cerevisiae), Q06551 (parent)
chain: MALVSRRSTRSESTSITKEEHTGEGSLTKLFFRWLVTLEGDQDINDGKGYISLPNVSNYIFFLGGRFRTVKGAKPLWLGVLLAIVCPMVLFSIFEAHKLWHTQNGYKVLVIFFYYFWVITLASFIRTATSDPGVLPRNIHLSQLRNNYQIPQEYYNLITLPTHSSISKDITIKYCPSCRIWRPPRSSHCSTCNVCVMVHDHHCIWVNNCIGKRNYRFFLIFLLGAILSSVILLTNCAIHIARESGGPRDCPVAILLLCYAGLTLWYPAILFTYHIFMAGNQQTTREFLKGIGSKKNPVFHRVVKEENIYNKGSFLKNMGHLMLEPRGPSFVSARKPHEAGDWRFMDLSPAHSFEKIQKI
partner: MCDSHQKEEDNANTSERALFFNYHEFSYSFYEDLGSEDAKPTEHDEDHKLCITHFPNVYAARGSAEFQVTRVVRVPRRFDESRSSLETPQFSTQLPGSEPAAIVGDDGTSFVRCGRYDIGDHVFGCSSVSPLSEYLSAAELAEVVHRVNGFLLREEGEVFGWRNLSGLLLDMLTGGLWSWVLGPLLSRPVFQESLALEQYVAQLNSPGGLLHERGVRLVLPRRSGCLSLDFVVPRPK

Variants of: B1
Conditions: with erfd_yeast SHR5, P41912

Variant	effect of a mutation on the interaction
C189S	disrupting interaction strength
H201A	with no effect
